# Starred links: 1 amine or outer side, 2 acyl side, 3 side chain; linkers in the order of their positions; H or OH if unused. Non-standard residues stand in square brackets, D forms with d. Primed or numbered codes have the meaning given here. *: point of attachment. NPeg9 = PEG amine from Pra click product: 32-amino-3,6,9,12,15,18,21,24,27,30-decaoxadotriacontyl, NCCOCCOCCOCCOCCOCCOCCOCCOCCOCCOCC*; Pra′ = its azide, alkyne or alkene has reacted where a group follows in round brackets; PEG12 = NCCOCCOCCOCCOCCOCCOCCOCCOCCOCCOCCOCCOCCC(=O)O; Oic = O=C(O)[C@@H]1C[C@@H]2CCCC[C@@H]2N1; Phe(4-Cl) = N[C@@H](Cc1ccc(Cl)cc1)C(=O)O; γGlu = O=C(O)[C@H](CCC(=O)[*:2])N[*:1]; NMeR = CN[C@@H](CCCNC(=N)N)C(=O)O; Tridecanoyl = CCCCCCCCCCCCC(=O)*; hArg = N=C(N)NCCCC[C@H](N)C(=O)O; Cha = N[C@@H](CC1CCCCC1)C(=O)O; NMeL = CN[C@@H](CC(C)C)C(=O)O; pGlu = O=C1CC[C@@H](C(=O)O)N1; Nle = CCCC[C@H](N)C(=O)O; Orn = NCCC[C@H](N)C(=O)O; AEEA = NCCOCCOCC(=O)O; Aib = CC(C)(N)C(=O)O; Mpa = O=C(O)CCS
# T1: rat APJ receptor (rat, UniProt Q9JHG3 1-377)
# T1 sequence (looked up): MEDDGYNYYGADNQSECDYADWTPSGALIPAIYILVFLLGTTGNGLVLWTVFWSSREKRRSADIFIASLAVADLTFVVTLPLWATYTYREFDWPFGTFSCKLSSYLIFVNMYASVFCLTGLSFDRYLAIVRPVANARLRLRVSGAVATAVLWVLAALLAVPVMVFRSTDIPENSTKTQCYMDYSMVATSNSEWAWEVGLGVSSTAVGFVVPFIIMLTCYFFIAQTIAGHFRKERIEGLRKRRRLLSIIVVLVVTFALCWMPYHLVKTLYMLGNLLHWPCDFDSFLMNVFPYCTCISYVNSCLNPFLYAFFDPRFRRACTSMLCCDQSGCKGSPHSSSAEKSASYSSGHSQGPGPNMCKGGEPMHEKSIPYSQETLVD
# T2: human APJ receptor (human, UniProt P35414 1-380)
# T2 sequence (looked up): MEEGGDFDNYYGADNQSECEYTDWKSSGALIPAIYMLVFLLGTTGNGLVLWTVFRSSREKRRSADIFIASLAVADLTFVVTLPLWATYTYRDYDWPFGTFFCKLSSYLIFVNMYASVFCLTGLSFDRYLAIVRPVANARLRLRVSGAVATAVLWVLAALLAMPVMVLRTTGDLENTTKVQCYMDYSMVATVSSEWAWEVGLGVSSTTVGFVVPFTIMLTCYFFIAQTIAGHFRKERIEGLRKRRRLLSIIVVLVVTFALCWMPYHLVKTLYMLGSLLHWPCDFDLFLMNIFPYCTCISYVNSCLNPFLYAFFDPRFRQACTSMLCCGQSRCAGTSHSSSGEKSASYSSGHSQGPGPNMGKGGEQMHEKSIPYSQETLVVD
# T3: human APJ receptor (human, UniProt P35414 1-380)
# T3 sequence (looked up): T2 sequence (looked up)
# T4: rat APJ receptor (rat, UniProt Q9JHG3 1-377)
# T4 sequence (looked up): T1 sequence (looked up)
# B1: apelin polypeptide SEQ ID NO: 59 (peptide)
# peptide: Ac-[Orn]F[hArg][hArg]Q[hArg]P[dR][NMeL]SHKG[Oic][Nle][Phe(4-Cl)]-OH
# SMILES: CCCC[C@H](NC(=O)[C@@H]1C[C@@H]2CCCC[C@@H]2N1C(=O)CNC(=O)[C@H](CCCCN)NC(=O)[C@H](Cc1c[nH]cn1)NC(=O)[C@H](CO)NC(=O)[C@H](CC(C)C)N(C)C(=O)[C@@H](CCCNC(=N)N)NC(=O)[C@@H]1CCCN1C(=O)[C@H](CCCCNC(=N)N)NC(=O)[C@H](CCC(N)=O)NC(=O)[C@H](CCCCNC(=N)N)NC(=O)[C@H](CCCCNC(=N)N)NC(=O)[C@H](Cc1ccccc1)NC(=O)[C@H](CCCN)NC(C)=O)C(=O)N[C@@H](Cc1ccc(Cl)cc1)C(=O)O
# B2: apelin polypeptide SEQ ID NO: 58 (peptide)
# peptide: Ac-[Orn]F[hArg][hArg]Q[hArg][Oic][dR][Cha]SHKG[Oic][Nle][Phe(4-Cl)]-OH
# SMILES: CCCC[C@H](NC(=O)[C@@H]1C[C@@H]2CCCC[C@@H]2N1C(=O)CNC(=O)[C@H](CCCCN)NC(=O)[C@H](Cc1c[nH]cn1)NC(=O)[C@H](CO)NC(=O)[C@H](CC1CCCCC1)NC(=O)[C@@H](CCCNC(=N)N)NC(=O)[C@@H]1C[C@@H]2CCCC[C@@H]2N1C(=O)[C@H](CCCCNC(=N)N)NC(=O)[C@H](CCC(N)=O)NC(=O)[C@H](CCCCNC(=N)N)NC(=O)[C@H](CCCCNC(=N)N)NC(=O)[C@H](Cc1ccccc1)NC(=O)[C@H](CCCN)NC(C)=O)C(=O)N[C@@H](Cc1ccc(Cl)cc1)C(=O)O
# B3: modified apelin polypeptide SEQ ID NO: 341 (peptide)
# peptide: Tridecanoyl-[γGlu][AEEA][AEEA]RQRPK[Cha]SA[Nle]G[Oic][Nle]P[Phe(4-Cl)]-OH
# SMILES: CCCCCCCCCCCCC(=O)N[C@@H](CCC(=O)NCCOCCOCC(=O)NCCOCCOCC(=O)N[C@@H](CCCNC(=N)N)C(=O)N[C@@H](CCC(N)=O)C(=O)N[C@@H](CCCNC(=N)N)C(=O)N1CCC[C@H]1C(=O)N[C@@H](CCCCN)C(=O)N[C@@H](CC1CCCCC1)C(=O)N[C@@H](CO)C(=O)N[C@@H](C)C(=O)N[C@@H](CCCC)C(=O)NCC(=O)N1[C@H](C(=O)N[C@@H](CCCC)C(=O)N2CCC[C@H]2C(=O)N[C@@H](Cc2ccc(Cl)cc2)C(=O)O)C[C@@H]2CCCC[C@@H]21)C(=O)O
# B4: modified apelin polypeptide SEQ ID NO: 539 (peptide)
# peptide: Tridecanoyl-[γGlu][PEG12][dQ]RP[NMeR][Cha]SHKG[Oic][Nle][Aib][Phe(4-Cl)]-OH
# SMILES: CCCCCCCCCCCCC(=O)N[C@@H](CCC(=O)NCCOCCOCCOCCOCCOCCOCCOCCOCCOCCOCCOCCOCCC(=O)N[C@H](CCC(N)=O)C(=O)N[C@@H](CCCNC(=N)N)C(=O)N1CCC[C@H]1C(=O)N(C)[C@@H](CCCNC(=N)N)C(=O)N[C@@H](CC1CCCCC1)C(=O)N[C@@H](CO)C(=O)N[C@@H](Cc1c[nH]cn1)C(=O)N[C@@H](CCCCN)C(=O)NCC(=O)N1[C@H](C(=O)N[C@@H](CCCC)C(=O)NC(C)(C)C(=O)N[C@@H](Cc2ccc(Cl)cc2)C(=O)O)C[C@@H]2CCCC[C@@H]21)C(=O)O
# B5: modified apelin polypeptide SEQ ID NO: 538 (peptide)
# peptide: Tridecanoyl-[dD][AEEA][AEEA][dQ]RP[NMeR][Cha]SHKG[Oic][Nle][Aib][Phe(4-Cl)]-OH
# SMILES: CCCCCCCCCCCCC(=O)N[C@H](CC(=O)O)C(=O)NCCOCCOCC(=O)NCCOCCOCC(=O)N[C@H](CCC(N)=O)C(=O)N[C@@H](CCCNC(=N)N)C(=O)N1CCC[C@H]1C(=O)N(C)[C@@H](CCCNC(=N)N)C(=O)N[C@@H](CC1CCCCC1)C(=O)N[C@@H](CO)C(=O)N[C@@H](Cc1c[nH]cn1)C(=O)N[C@@H](CCCCN)C(=O)NCC(=O)N1[C@H](C(=O)N[C@@H](CCCC)C(=O)NC(C)(C)C(=O)N[C@@H](Cc2ccc(Cl)cc2)C(=O)O)C[C@@H]2CCCC[C@@H]21
# B6: modified apelin polypeptide SEQ ID NO: 507 (peptide)
# peptide: XXQRPRLSHKGPXPF
# modifications: {TDA} [Aeea] [Aeea] Q R P [NMeArg] L S H K G P [Nle] P [4-Cl-F] {COOH}: N-terminal tridecanoyl (TDA)-Aeea-Aeea; NMeArg, Nle, 4-Cl-F non-canonical; free C-terminal acid
# B7: modified apelin polypeptide SEQ ID NO: 346 (peptide)
# peptide: Tridecanoyl-[γGlu][AEEA][AEEA]RQRPK[Cha]AA[Nle]G[Oic][Nle]P[Phe(4-Cl)]-OH
# SMILES: CCCCCCCCCCCCC(=O)N[C@@H](CCC(=O)NCCOCCOCC(=O)NCCOCCOCC(=O)N[C@@H](CCCNC(=N)N)C(=O)N[C@@H](CCC(N)=O)C(=O)N[C@@H](CCCNC(=N)N)C(=O)N1CCC[C@H]1C(=O)N[C@@H](CCCCN)C(=O)N[C@@H](CC1CCCCC1)C(=O)N[C@@H](C)C(=O)N[C@@H](C)C(=O)N[C@@H](CCCC)C(=O)NCC(=O)N1[C@H](C(=O)N[C@@H](CCCC)C(=O)N2CCC[C@H]2C(=O)N[C@@H](Cc2ccc(Cl)cc2)C(=O)O)C[C@@H]2CCCC[C@@H]21)C(=O)O
# B8: modified apelin polypeptide SEQ ID NO: 537 (peptide)
# peptide: Tridecanoyl-E[AEEA][AEEA][dQ]RP[NMeR][Cha]SHKG[Oic][Nle][Aib][Phe(4-Cl)]-OH
# SMILES: CCCCCCCCCCCCC(=O)N[C@@H](CCC(=O)O)C(=O)NCCOCCOCC(=O)NCCOCCOCC(=O)N[C@H](CCC(N)=O)C(=O)N[C@@H](CCCNC(=N)N)C(=O)N1CCC[C@H]1C(=O)N(C)[C@@H](CCCNC(=N)N)C(=O)N[C@@H](CC1CCCCC1)C(=O)N[C@@H](CO)C(=O)N[C@@H](Cc1c[nH]cn1)C(=O)N[C@@H](CCCCN)C(=O)NCC(=O)N1[C@H](C(=O)N[C@@H](CCCC)C(=O)NC(C)(C)C(=O)N[C@@H](Cc2ccc(Cl)cc2)C(=O)O)C[C@@H]2CCCC[C@@H]21
# B9: modified apelin polypeptide SEQ ID NO: 337 (peptide)
# peptide: Tridecanoyl-[γGlu][AEEA][AEEA]RQRPK[Cha]SH[Nle]G[Oic][Nle]P[Phe(4-Cl)]-OH
# SMILES: CCCCCCCCCCCCC(=O)N[C@@H](CCC(=O)NCCOCCOCC(=O)NCCOCCOCC(=O)N[C@@H](CCCNC(=N)N)C(=O)N[C@@H](CCC(N)=O)C(=O)N[C@@H](CCCNC(=N)N)C(=O)N1CCC[C@H]1C(=O)N[C@@H](CCCCN)C(=O)N[C@@H](CC1CCCCC1)C(=O)N[C@@H](CO)C(=O)N[C@@H](Cc1c[nH]cn1)C(=O)N[C@@H](CCCC)C(=O)NCC(=O)N1[C@H](C(=O)N[C@@H](CCCC)C(=O)N2CCC[C@H]2C(=O)N[C@@H](Cc2ccc(Cl)cc2)C(=O)O)C[C@@H]2CCCC[C@@H]21)C(=O)O
# B10: modified apelin polypeptide SEQ ID NO: 511 (peptide)
# peptide: XXXQRPRLSHKGPXPF
# modifications: {TetDDA} [AC4Abu] [Aeea] [Aeea] Q R P [NMeArg] L S H K G P [Nle] P [4-Cl-F] {COOH}: N-terminal tetradecanedioyl (TetDDA)-gammaGlu (AC4Abu)-Aeea-Aeea; NMeArg, Nle, 4-Cl-F non-canonical; free C-terminal acid
# B11: modified apelin polypeptide SEQ ID NO: 532 (peptide)
# peptide: Tridecanoyl-[γGlu][dQ]RP[NMeR][Cha]SHKG[Oic][Nle][Aib][Phe(4-Cl)]-OH
# SMILES: CCCCCCCCCCCCC(=O)N[C@@H](CCC(=O)N[C@H](CCC(N)=O)C(=O)N[C@@H](CCCNC(=N)N)C(=O)N1CCC[C@H]1C(=O)N(C)[C@@H](CCCNC(=N)N)C(=O)N[C@@H](CC1CCCCC1)C(=O)N[C@@H](CO)C(=O)N[C@@H](Cc1c[nH]cn1)C(=O)N[C@@H](CCCCN)C(=O)NCC(=O)N1[C@H](C(=O)N[C@@H](CCCC)C(=O)NC(C)(C)C(=O)N[C@@H](Cc2ccc(Cl)cc2)C(=O)O)C[C@@H]2CCCC[C@@H]21)C(=O)O
# Target: T1, rat APJ receptor
# Experiment: cell-based or functional assay
row,EC50 Rat APJ Receptor [nM],Binder
1,14.6,[pGlu]RP[hArg][Cha][Pra′](NPeg9)HKG[Oic][Nle]P[Phe(4-Cl)]-OH [apelin polypeptide SEQ ID NO: 96]
2,45.4,{20K mPEGacetamide}-[Mpa]RQRP[hArg][Cha]SHKG[Oic][Nle]P[Phe(4-Cl)]-OH (numbers in words are those of the source; also: 20 kDa PEG conjugate) [apelin polypeptide SEQ ID NO: 100]
3,4.57,B1
4,5.32,B2

# Target: T2, human APJ receptor
# Experiment: cell-based or functional assay
row,EC50 Human APJ Receptor [nM],Binder
1,2.02,[pGlu]RP[hArg][Cha][Pra′](NPeg9)HKG[Oic][Nle]P[Phe(4-Cl)]-OH [apelin polypeptide SEQ ID NO: 96]
2,8.06,{20K mPEGacetamide}-[Mpa]RQRP[hArg][Cha]SHKG[Oic][Nle]P[Phe(4-Cl)]-OH (numbers in words are those of the source; also: 20 kDa PEG conjugate) [apelin polypeptide SEQ ID NO: 100]
3,2.08,B1
4,1.17,B2

# Target: T3, human APJ receptor
# Experiment: cell-based or functional assay
row,"EC50 Human APJ Receptor (µM), GTPγS assay [µM]",Binder
1,0.000478,Tridecanoyl-D[AEEA][AEEA][dQ]RP[NMeR][Cha]SHKG[Oic][Nle][Aib][Phe(4-Cl)]-OH [modified apelin polypeptide SEQ ID NO: 546]
2,0.000561,B3
3,0.000735,B4
4,0.000525,B5
5,7.95e-05,B6
6,0.00277,B7
7,0.00028,B8
8,0.00208,B9

# Target: T4, rat APJ receptor
# Experiment: cell-based or functional assay
row,"EC50 Rat APJ Receptor (µM), GTPγS assay [µM]",Binder
1,0.00123,Tridecanoyl-D[AEEA][AEEA][dQ]RP[NMeR][Cha]SHKG[Oic][Nle][Aib][Phe(4-Cl)]-OH [modified apelin polypeptide SEQ ID NO: 546]
2,0.00127,B3
3,0.00354,B4
4,0.000968,B10
5,0.00189,B5
6,0.000245,B6
7,0.00246,B7
8,0.00299,B11
9,0.00108,B8
10,0.00212,B9

# Source: patent US10941182 (Amgen, dated 2021)
